Data reported in publication PMC6298731, “Functional and structural similarity of human DNA primase [4Fe4S] cluster domain constructs”.

T1: p58C272-464 (DNA primase regulatory subunit C-terminal domain) (human, UniProt P49643 272-464)
T1 sequence: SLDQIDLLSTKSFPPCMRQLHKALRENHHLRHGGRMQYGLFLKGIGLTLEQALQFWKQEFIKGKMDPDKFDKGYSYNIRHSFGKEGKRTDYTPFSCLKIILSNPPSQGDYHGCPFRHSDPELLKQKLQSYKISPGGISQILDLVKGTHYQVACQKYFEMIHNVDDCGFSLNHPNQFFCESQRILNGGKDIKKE

T2: p58C266-464 (DNA primase regulatory subunit C-terminal domain) (human, UniProt P49643 266-464)
T2 sequence: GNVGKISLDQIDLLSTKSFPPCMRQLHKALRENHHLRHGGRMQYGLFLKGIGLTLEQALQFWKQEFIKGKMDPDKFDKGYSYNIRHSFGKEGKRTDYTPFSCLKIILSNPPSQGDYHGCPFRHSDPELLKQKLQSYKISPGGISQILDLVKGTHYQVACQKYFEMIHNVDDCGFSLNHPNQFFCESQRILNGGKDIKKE

B1: MST/FI substrate: 8 nt RNA-primed 18 nt DNA template (DNA:RNA)
RNA: GGCUCGGA
DNA: AAACTCCGAGCCAACATA
modifications: 5'-triphosphate on RNA primer
B2: FA substrate: 12 nt RNA-primed 22 nt DNA template (DNA:RNA)
RNA: GGACCUCCAGGA
DNA: AAACTCCTGGAGGTCCAACATA
modifications: 5'-triphosphate on RNA primer (RNA printed with T as S5; written here with U)

Experiments:
[1] = biological target: T1, p58C272-464 (DNA primase regulatory …); assay: fluorescence intensity (Monolith MST instrument); 20 mM MES pH 6.5, 50 mM NaCl, 2 mM DTT (plus 0.05% Tween for FI), 50 nM substrate, 25 C; 15 min incubation at room temperature; conditions: protein: recombinant; tags: 6xHis tag cleaved with H3C protease; label: 5'-Cy5 on DNA template; 8 bp RNA-DNA hybrid; template 5' overhang 4 nt and 3' overhang 6 nt
[2] = biological target: T2, p58C266-464 (DNA primase regulatory …); assay: as above; conditions: protein: recombinant; tags: 6xHis tag cleaved with H3C protease; label: 5'-Cy5 on DNA template; 8 bp RNA-DNA hybrid; template 5' overhang 4 nt and 3' overhang 6 nt
[3] = biological target: T1, p58C272-464 (DNA primase regulatory …); assay: fluorescence anisotropy; 20 mM MES pH 6.5, 50 mM NaCl, 2 mM DTT (plus 0.05% Tween for FI), 50 nM substrate, 25 C; 15 min incubation at room temperature; conditions: protein: recombinant; tags: 6xHis tag cleaved with H3C protease; label: 5'-6FAM on DNA template (S4 Dataset says FITC); 12 bp RNA-DNA hybrid; template 5' overhang 4 nt and 3' overhang 6 nt
[4] = biological target: T2, p58C266-464 (DNA primase regulatory …); assay: as above; conditions: protein: recombinant; tags: 6xHis tag cleaved with H3C protease; label: 5'-6FAM on DNA template (S4 Dataset says FITC); 12 bp RNA-DNA hybrid; template 5' overhang 4 nt and 3' overhang 6 nt

Binder | Kd [1] [µM] | Kd [2] [µM] | Kd [3] [µM] | Kd [4] [µM]
B1 | 2.7 ± 0.3 | 3.4 ± 0.5 |  | 
B2 |  |  | 3.6 ± 0.1 | 2.1 ± 0.1
